Assay [1] deals with T1, Mcl-1 (biotinylated pro-survival Bcl-2 family protein) (UniProt Q07820 171-327, biotinylated (co-expressed E. coli biotin ligase BirA)).
T1 chain: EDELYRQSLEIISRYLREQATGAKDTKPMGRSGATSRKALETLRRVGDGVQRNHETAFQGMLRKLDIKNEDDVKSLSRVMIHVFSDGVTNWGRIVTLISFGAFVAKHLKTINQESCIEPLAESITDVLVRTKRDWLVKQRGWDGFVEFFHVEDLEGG
The assay can be described thus: cell surface display FACS titration; apparent Kd.

Assay [2] deals with Bcl-2 (biotinylated pro-survival Bcl-2 family protein) (UniProt P10415 1-217, biotinylated (co-expressed E. coli biotin ligase BirA)). Nature of the assay: cell surface display FACS titration; apparent Kd.
Assay [3] has as its target T2, A1 (biotinylated pro-survival Bcl-2 family protein) (UniProt Q16548 1-152, biotinylated (co-expressed E. coli biotin ligase BirA)).
T2 chain: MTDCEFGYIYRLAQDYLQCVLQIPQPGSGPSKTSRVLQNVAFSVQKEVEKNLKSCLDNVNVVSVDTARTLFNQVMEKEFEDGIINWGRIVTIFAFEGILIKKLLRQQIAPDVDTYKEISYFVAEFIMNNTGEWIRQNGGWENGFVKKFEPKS
The assay can be described thus: flow cytometry, bacterial surface display (eCPX); apparent Kd; FIG. 7AH. For orientation: A flow cytometer gives signals particle by particle.

Where no end group is shown, it is not given here. eCPX = enhanced circularly permuted OmpX display scaffold; linker = not defined here Some results are limits rather than exact numbers.

Sequence of Bcl-2 (biotinylated pro-survival Bcl-2 family protein) (P10415 1-217): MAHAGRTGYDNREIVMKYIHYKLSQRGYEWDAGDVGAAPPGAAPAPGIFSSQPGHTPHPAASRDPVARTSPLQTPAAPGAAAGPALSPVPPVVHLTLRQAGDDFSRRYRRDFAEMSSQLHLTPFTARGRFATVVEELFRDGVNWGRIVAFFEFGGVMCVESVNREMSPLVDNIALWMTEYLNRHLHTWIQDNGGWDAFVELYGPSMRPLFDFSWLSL

WIAQLLRRIGDEFN [Bim BH3 14-mer E151L displayed on eCPX]: the Kd in assay [1] was 17.8 nM.
On the same count and under the same terms, the figure for WIAQTLRRIGDEFN [Bim BH3 14-mer E151T displayed on eCPX] is 33.2 nM.

B1: Bim BH3 14-mer variant M2-2 displayed on eCPX (peptide)
peptide: WVAQLLRRIGDEVN-{linker-eCPX}
modifications: reading uncertain; also: printed as Trp-Val-Ala-Gln-Leu-Leu-Arg-Arg-Ile-Gly-Asp-Glu-Val-Asn
As for B1, the Kd in assay [2] is > 10 µM.
As to WLAQLLRRYGDEFN (also: displayed as fusion to eCPX scaffold (letters not given here)) [Bim BH3 14-mer variant X2-8 displayed on eCPX], the Kd in assay [3] came out at 5.8 nM.

These data come from US20150045310A1 (published 2015).
